Test results as given in patent US20190077876A1 (AbbVie / Abbott, published 2019).
Values belong to the binder of their own block, whether it stands above or below them.

Experiments:
[1] = biological target: T1, human CLDN4 protein (human, UniProt O14493 1-209); test: flow cytometry on cells overexpressing human CLDN4; 10 µg/mL purified antibody, Alexa 647 anti-mouse secondary; single point
T1 construct: whole, on cells; also called hCLDN4; claudin 4
T1 sequence (looked up): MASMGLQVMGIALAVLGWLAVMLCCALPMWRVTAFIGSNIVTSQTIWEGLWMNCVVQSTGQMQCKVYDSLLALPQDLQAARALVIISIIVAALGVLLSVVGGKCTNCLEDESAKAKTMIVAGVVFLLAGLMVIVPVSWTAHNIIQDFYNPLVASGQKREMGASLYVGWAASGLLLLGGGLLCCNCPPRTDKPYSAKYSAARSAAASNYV

[2] = biological target: T2, human CLDN6 protein (human, UniProt P56747 1-220); test: cell-based or functional assay
T2 sequence (looked up): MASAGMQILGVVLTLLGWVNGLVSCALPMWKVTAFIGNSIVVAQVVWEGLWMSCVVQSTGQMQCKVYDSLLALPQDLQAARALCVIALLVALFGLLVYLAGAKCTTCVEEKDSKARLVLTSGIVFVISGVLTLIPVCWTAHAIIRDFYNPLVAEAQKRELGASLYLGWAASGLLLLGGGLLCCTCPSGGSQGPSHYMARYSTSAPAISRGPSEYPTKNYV

[3] = biological target: T3, human CLDN9 protein (human, UniProt O95484 1-217); test: cell-based or functional assay
T3 sequence (looked up): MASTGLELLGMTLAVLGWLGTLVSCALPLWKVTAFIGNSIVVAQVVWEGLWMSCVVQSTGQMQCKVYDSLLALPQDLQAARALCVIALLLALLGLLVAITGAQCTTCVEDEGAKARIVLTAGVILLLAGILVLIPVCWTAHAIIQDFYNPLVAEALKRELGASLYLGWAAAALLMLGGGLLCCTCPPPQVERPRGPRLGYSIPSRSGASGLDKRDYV

[4] = biological target: T3, human CLDN9 protein; test: flow cytometry on cells overexpressing human CLDN9; 10 µg/mL purified antibody, Alexa 647 anti-mouse secondary; single point
[5] = biological target: T1, human CLDN4 protein; test: flow cytometry on cells overexpressing human CLDN4; Alexa 647 anti-mouse secondary; single point
[6] = biological target: T2, human CLDN6 protein; test: cell-based or functional assay; remark: listed apart in the source
[7] = biological target: T3, human CLDN9 protein; test: cell-based or functional assay; remark: listed apart in the source
[8] = biological target: T2, human CLDN6 protein; test: flow cytometry on cells overexpressing human CLDN6; 10 µg/mL purified antibody, Alexa 647 anti-mouse secondary; single point
[9] = biological target: T3, human CLDN9 protein; test: flow cytometry, antibody titration on HEK-293T cells overexpressing CLDN9, four parameter fit of fraction maximal binding; HEK-293T cells overexpressing CLDN9
Excerpt: (§1) Following additional washing with PBS, cells were fixed with paraformaldehyde (PFA) and read on a BD FACS Canto II flow cytometer in accordance with the manufacturer's instructions. MFI values were normalized using fluorescent microspheres (Bangs Laboratories) according to manufacturer's instructions.

[10] = biological target: T2, human CLDN6 protein; test: flow cytometry, antibody titration on HEK-293T cells overexpressing CLDN6, four parameter fit of fraction maximal binding; HEK-293T cells overexpressing CLDN6
Excerpt: as §1

[11] = biological target: hCLDN proteins on the surface of PDX tumor cells; test: flow cytometry on LU22 (LU-Sq) PDX tumor cells, NTG subpopulation; change in geometric MFI against the IgG1 isotype control
[12] = biological target: hCLDN proteins on the surface of PDX tumor cells; test: flow cytometry on PA49 (PDAC) PDX tumor cells, CSC subpopulation (EPCAM+ CD46hi CD324+); change in geometric MFI against the IgG1 isotype control
[13] = biological target: hCLDN proteins on the surface of PDX tumor cells; test: flow cytometry on LU135 (LU-Ad) PDX tumor cells, CSC subpopulation (EPCAM+ CD46hi CD324+); change in geometric MFI against the IgG1 isotype control
[14] = biological target: hCLDN proteins on the surface of PDX tumor cells; test: flow cytometry on OV44 (OV-S) PDX tumor cells, NTG subpopulation; change in geometric MFI against the IgG1 isotype control
[15] = biological target: hCLDN proteins on the surface of PDX tumor cells; test: flow cytometry on PA20 (PDAC) PDX tumor cells, NTG subpopulation; change in geometric MFI against the IgG1 isotype control
[16] = biological target: hCLDN proteins on the surface of PDX tumor cells; test: flow cytometry on LU22 (LU-Sq) PDX tumor cells, CSC subpopulation (EPCAM+ CD46hi CD324+); change in geometric MFI against the IgG1 isotype control
[17] = biological target: hCLDN proteins on the surface of PDX tumor cells; test: flow cytometry on OV54MET (OV-S) PDX tumor cells, CSC subpopulation (EPCAM+ CD46hi CD324+); change in geometric MFI against the IgG1 isotype control
[18] = biological target: hCLDN proteins on the surface of PDX tumor cells; test: flow cytometry on OV54MET (OV-S) PDX tumor cells, NTG subpopulation; change in geometric MFI against the IgG1 isotype control
[19] = biological target: hCLDN proteins on the surface of PDX tumor cells; test: flow cytometry on OV91MET (OV-PS) PDX tumor cells, NTG subpopulation; change in geometric MFI against the IgG1 isotype control
[20] = biological target: hCLDN proteins on the surface of PDX tumor cells; test: flow cytometry on PA20 (PDAC) PDX tumor cells, CSC subpopulation (EPCAM+ CD46hi CD324+); change in geometric MFI against the IgG1 isotype control
[21] = biological target: hCLDN proteins on the surface of PDX tumor cells; test: flow cytometry on LU135 (LU-Ad) PDX tumor cells, NTG subpopulation; change in geometric MFI against the IgG1 isotype control
[22] = biological target: hCLDN proteins on the surface of PDX tumor cells; test: flow cytometry on PA24 (PDAC) PDX tumor cells, CSC subpopulation (EPCAM+ CD46hi CD324+); change in geometric MFI against the IgG1 isotype control
[23] = biological target: hCLDN proteins on the surface of PDX tumor cells; test: flow cytometry on OV91MET (OV-PS) PDX tumor cells, CSC subpopulation (EPCAM+ CD46hi CD324+); change in geometric MFI against the IgG1 isotype control
[24] = biological target: hCLDN proteins on the surface of PDX tumor cells; test: flow cytometry on OV44 (OV-S) PDX tumor cells, CSC subpopulation (EPCAM+ CD46hi CD324+); change in geometric MFI against the IgG1 isotype control
[25] = biological target: hCLDN proteins on the surface of PDX tumor cells; test: flow cytometry on PA24 (PDAC) PDX tumor cells, NTG subpopulation; change in geometric MFI against the IgG1 isotype control
[26] = biological target: hCLDN proteins on the surface of PDX tumor cells; test: flow cytometry on PA49 (PDAC) PDX tumor cells, NTG subpopulation; change in geometric MFI against the IgG1 isotype control

- MFI [1]: 75
- MFI [4]: 12100
- binding result [5]: no binding (tested: 10 µg/mL)
- MFI [8]: 99600
B1: SC27.103 mouse monoclonal anti-CLDN antibody (antibody, V domains shown)
VH: EVHLQQSGPELVKPGGSMKISCKASGYSFTGYTMNWVKQSHGKNLEWIGLFNPYNGGTSYNQKFKGKATLTVDKSSSTAYMELLSLTSEDSAVYYCARCYRYDGLDYWGQGTTLTVSS
VL: QIVLTQSPAIMSASLGERVTMTCTASSSVSSSYLHWYQQKPGSSPTLWIYRTSDLASGVPARFSGSGSGTSYSLTISSMEAEDAATYYCHQYHRSPWTFGGGTRLEIK
- apparent IC50 of saporin-mediated cell killing [2]: 58 nM
- apparent IC50 of saporin-mediated cell killing [3]: 466 nM
- apparent IC50 of killing of HEK-293T cells overexpressing hCLDN6; antibody titrated 0.15 to 1000 nM with anti-mouse IgG Fab-saporin, CellTiter-Glo [6]: 57.7 nM
- apparent IC50 of killing of HEK-293T cells overexpressing hCLDN9; antibody titrated 0.15 to 1000 nM with anti-mouse IgG Fab-saporin, CellTiter-Glo [7]: 466 nM

- EC50 [9]: 4.66 µg/mL
- EC50 [10]: 3.45 µg/mL
B2: hSC27.22 humanized anti-CLDN antibody (antibody, human IgG1, kappa, V domains shown)
VH: QVQLVQSGAEVKKPGASVKVSCKASGYTFTSYWMNWVRQAPGQRLEWMGMIHPSDSEIRLNQKFKDRVTITRDTSASTAYMELSSLRSEDTAVYYCARIDSYYGYLFYFDYWGQGTTVTVSS
VL: DIVMTQSPDSLAVSLGERATINCRASQTVSTSSYSYMHWYQQKPGQPPKLLIYFASNVESGVPDRFSGSGSGTDFTLTISSLQAEDVAVYYCQHSWEIPWTFGQGTKLEIKR

- ΔMFI [11]: 31
- ΔMFI [12]: 194
- ΔMFI [13]: 88
- ΔMFI [14]: 53
- ΔMFI [15]: 60
- ΔMFI [16]: 733
- ΔMFI [17]: 763
- ΔMFI [18]: 21
- ΔMFI [19]: 0
- ΔMFI [20]: 250
- ΔMFI [21]: 17
- ΔMFI [22]: 1580
- ΔMFI [23]: 118
- ΔMFI [24]: 643
- ΔMFI [25]: 223
- ΔMFI [26]: 0
B3: SC27.1 mouse monoclonal anti-CLDN antibody (antibody, V domains shown)
VH: EVQLQESRPELVKPGASVKISCKTSGYTFTEYTLHWVKQSHGKSLEWIGGINPNNGDTIYNQKFKGKATLTVDKSSSTAYMELRSLTSEYSAVYYCARRAITVYAMDYWGQGTSVTVSS
VL: DIQMTQSSSSFSVSLGDRVTITCKASEDIYNRLAWYQQKPGNAPRLLISGATSLETGTPSRFSGSGSGKDYTLSITSLRTEDAATYYCQQYWSTPLTFGTGTKLELK
